Data on 13 molecules can be found in US20180155451A1 (published 2018).

Sequences and labels used below:
T1: FcγRIIa R (FcγRIIa, allotype R, Arg at position 131), extracellular domain with C-terminal His tag (human, UniProt P12318 34-217)
T1 construct: extracellular domain; soluble receptor used as Biacore analyte; also called 2aR; FcgRIIa R
T1 sequence (looked up): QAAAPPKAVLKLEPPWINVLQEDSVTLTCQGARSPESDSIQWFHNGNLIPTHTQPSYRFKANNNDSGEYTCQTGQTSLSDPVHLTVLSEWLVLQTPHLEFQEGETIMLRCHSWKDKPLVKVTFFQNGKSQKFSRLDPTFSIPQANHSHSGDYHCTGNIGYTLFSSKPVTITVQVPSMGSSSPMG

T2: FcγRIIb, extracellular domain with C-terminal His tag (human, UniProt P31994 43-217)
T2 construct: extracellular domain; soluble receptor used as Biacore analyte; also called 2b; FcgRIIb
T2 sequence (looked up): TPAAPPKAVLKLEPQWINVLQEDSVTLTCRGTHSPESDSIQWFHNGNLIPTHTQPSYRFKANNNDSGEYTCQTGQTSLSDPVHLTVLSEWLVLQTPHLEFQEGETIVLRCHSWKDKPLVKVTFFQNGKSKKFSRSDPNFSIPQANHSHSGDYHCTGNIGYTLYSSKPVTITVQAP

T3: FcγRIIb extracellular domain with C-terminal His tag (human, UniProt P31994 43-217)
T3 construct: extracellular domain; Soluble receptor expressed in FreeStyle293 cells; analyte in Biacore; also called FcgRIIb; 2b; not shown: His tag at the C terminus
T3 sequence (looked up): T2 sequence (looked up)

B1: heterodimerized antibody GpH7-A5/GpH7-B3 variant V266_07I/GpL16-k0 (antibody, human IgG1, kappa)
heavy 1: not shown
heavy 2: not shown
light: DIVMTQSPLSLPVTPGEPASISCQASESLVHSNRNTYLHWYLQKPGQSPQLLIYKVSNRFSGVPDRFSGSGSGTDFTLKISRVEAEDVGVYYCSQNTHVPPTFGQGTKVEIERTVAAPSVFIFPPSDEQLKSGTASVVCLLNNFYPREAKVQWKVDNALQSGNSQESVTEQDSKDSTYSLSSTLTLSKADYEKHKVYACEVTHQGLSSPVTKSFNRGEC
notes: He Ab: anti-glypican-3 IgG1, alteration in one H chain only; also called He Ab
B2: heterodimerized antibody GpH7-A5/GpH7-B3 variant V266_04F/GpL16-k0 (antibody, human IgG1, kappa)
heavy 1: not shown
heavy 2: not shown
light: B1 light
notes: as for B1
B3: heterodimerized antibody GpH7-A5/GpH7-B3 variant S267_19Q/GpL16-k0 (antibody, human IgG1, kappa)
heavy 1: not shown
heavy 2: not shown
light: B1 light
notes: as for B1
B4: heterodimerized antibody GpH7-A5/GpH7-B3 variant S267_16H/GpL16-k0 (antibody, human IgG1, kappa)
heavy 1: not shown
heavy 2: not shown
light: B1 light
notes: as for B1
B5: heterodimerized antibody GpH7-A5/GpH7-B3 variant V266_08L/GpL16-k0 (antibody, human IgG1, kappa)
heavy 1: not shown
heavy 2: not shown
light: B1 light
notes: as for B1
B6: heterodimerized antibody GpH7-A5/GpH7-B3 variant Y300_10E/GpL16-k0 (antibody, human IgG1, kappa)
heavy 1: not shown
heavy 2: not shown
light: B1 light
notes: as for B1
B7: heterodimerized antibody GpH7-A5/GpH7-B3 variant V266_06M/GpL16-k0 (antibody, human IgG1, kappa)
heavy 1: not shown
heavy 2: not shown
light: B1 light
notes: as for B1
B8: GpH7-A5/GpH7-B3 variant P329_01G/GpL16-k0 (antibody, human IgG1, kappa)
heavy 1: not shown
heavy 2: not shown
light: B1 light
notes: He Ab: heterodimerized anti-glypican-3 IgG1, substitution in one H chain only; also called He Ab P329G
B9: GpH7-A5/GpH7-B3 variant A330_07I/GpL16-k0 (antibody, human IgG1, kappa)
heavy 1: not shown
heavy 2: not shown
light: B1 light
notes: He Ab: heterodimerized anti-glypican-3 IgG1, substitution in one H chain only; also called He Ab A330I
B10: GpH7-A5/GpH7-B3 variant A330_13S/GpL16-k0 (antibody, human IgG1, kappa)
heavy 1: not shown
heavy 2: not shown
light: B1 light
notes: He Ab: heterodimerized anti-glypican-3 IgG1, substitution in one H chain only; also called He Ab A330S
B11: GpH7-A5/GpH7-B3 variant A330_08L/GpL16-k0 (antibody, human IgG1, kappa)
heavy 1: not shown
heavy 2: not shown
light: B1 light
notes: He Ab: substitution in one H chain only; also called He Ab A330L
B12: GpH7-A5/GpH7-B3 variant A330_06M/GpL16-k0 (antibody, human IgG1, kappa)
heavy 1: not shown
heavy 2: not shown
light: B1 light
notes: He Ab: heterodimerized anti-glypican-3 IgG1, substitution in one H chain only; also called He Ab A330M
B13: GpH7-A5/GpH7-B3 variant A330_10E/GpL16-k0 (antibody, human IgG1, kappa)
heavy 1: not shown
heavy 2: not shown
light: B1 light
notes: He Ab: heterodimerized anti-glypican-3 IgG1, substitution in one H chain only; also called He Ab A330E

One experiment addresses T1, FcγRIIa R (FcγRIIa, allotype R, Arg at …). Nature of the experiment: Biacore SPR; He/Con_2aR divided by He/Con_2b (FcγRIIb).
Consider B1, for which the “IIaR/IIb (He_2aR/2b)” value came out at 0.79.
Regarding B2, the “IIaR/IIb (He_2aR/2b)” value is 0.77.
As to B3, the “IIaR/IIb (He_2aR/2b)” value stood at 0.62.
B4: the “IIaR/IIb (He_2aR/2b)” value was determined as 0.77.
Turning to B5, the “IIaR/IIb (He_2aR/2b)” value amounted to 0.6.
For B6, the “IIaR/IIb (He_2aR/2b)” value amounted to 0.8.
On the same count and under the same terms, the same measure for B7: 0.6.

Another experiment has the same target. Nature of the experiment: Biacore SPR; binding relative to GpH7-A5/GpH7-B3/GpL16-k0 (=100).
With B1, the “He/Con_2aR (IIaR binding)” value was 120 % of control.
B2: the “He/Con_2aR (IIaR binding)” value is 44.4 % of control.
For B3, the “He/Con_2aR (IIaR binding)” value is 135 % of control.
Regarding B4, the “He/Con_2aR (IIaR binding)” value is 50.6 % of control.
With B5, the “He/Con_2aR (IIaR binding)” value was 142 % of control.
With B6, the “He/Con_2aR (IIaR binding)” value was 107 % of control.
For the molecule B7, the “He/Con_2aR (IIaR binding)” value was 150 % of control.

A further experiment deals with T2, FcγRIIb, extracellular domain with …. The description is as above.
Consider B1, for which the “He/Con_2b (IIb binding)” value is 152 % of control.
With B2, the “He/Con_2b (IIb binding)” value is 57.6 % of control.
Still for that read-out and setting: the result for B3 reads 218 % of control; that for B4, 65.9 % of control.
For B5, the “He/Con_2b (IIb binding)” value is 236 % of control.
As to B6, the “He/Con_2b (IIb binding)” value is 134 % of control.
For B7, the “He/Con_2b (IIb binding)” value was 251 % of control.

The target of the next experiment is T4, FcγRIa extracellular domain with C-terminal His tag (human, UniProt P12314 16-292).
T4 construct: extracellular domain; Soluble receptor expressed in FreeStyle293 cells; analyte in Biacore; also called FcgRI; FcgRIa; not shown: His tag at the C terminus
T4 sequence (P12314 16-292): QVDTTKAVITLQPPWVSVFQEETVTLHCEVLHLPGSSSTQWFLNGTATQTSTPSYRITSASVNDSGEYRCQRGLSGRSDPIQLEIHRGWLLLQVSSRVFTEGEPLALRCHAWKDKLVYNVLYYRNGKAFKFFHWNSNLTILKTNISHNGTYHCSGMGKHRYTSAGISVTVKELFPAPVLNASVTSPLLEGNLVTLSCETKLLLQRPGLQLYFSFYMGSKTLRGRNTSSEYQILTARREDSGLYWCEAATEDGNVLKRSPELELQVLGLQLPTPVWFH
Put plainly: SPR (Biacore), antibody captured on antigen peptide chip, FcγR as analyte; binding relative to GpH7-A5/GpH7-B3/GpL16-k0 = 100. The protocol:
(§1) The heterodimerized antibodies He Abs in which one of the H chains was introduced with an alteration were assayed for their binding activities to each activating FcγR and inhibitory FcγR according to the method described in Example 4. […] The activating FcγRs in FIGS. 26, 27, 28, and 29 are FcγRIa, FcγRIIa (R), FcγRIIa (H), and FcγRIIIa, respectively.
(§2) Analysis of interaction between objective antibody and the FcγR was carried out using Biacore T100 (GE Healthcare). HBS-EP+ (GE Healthcare) was used as the running buffer, and the measurement temperature was set to 25° C. Chips produced by immobilizing the antigen peptide by the amine coupling method to a Series S Sencor Chip CM5 (GE Healthcare), or alternatively, chips produced by allowing preliminarily biotinylated antigen peptides to interact with and immobilize onto a Series S Sensor Chip SA (certified) (GE Healthcare) were used. Antibodies of interest were captured onto an antigen peptide-immobilized chip, and allowed to interact to each FcγR diluted with running buffer. To regenerate and repeatedly use the chip, the antibodies captured on the chip were washed off by reacting 10 mM glycine-HCl, pH 1.5.
Consider B8, for which the “He/Con_1a (Ia binding)” value is 101 % of control (control = 100).
In the case of B9, the “He/Con_1a (Ia binding)” value is 105 % of control (control = 100).
For the molecule B10, the “He/Con_1a (Ia binding)” value was 91.5 % of control (control = 100).
Regarding B11, the “He/Con_1a (Ia binding)” value was 107 % of control (control = 100).
Take B12: the “He/Con_1a (Ia binding)” value is 105 % of control (control = 100).
Still for that read-out and setting: the same measure for B13: 107 % of control (control = 100).

The target in a further experiment is T3, FcγRIIb extracellular domain with …. The description is as above. The protocol:
as §1, §2
Consider B8, for which the “He/Con_2b (IIb binding)” value was 41.7 % of control (control = 100).
Regarding B9, the “He/Con_2b (IIb binding)” value is 67.1 % of control (control = 100).
Regarding B10, the “He/Con_2b (IIb binding)” value is 41.3 % of control (control = 100).
Turning to B11, the “He/Con_2b (IIb binding)” value was 70.5 % of control (control = 100).
Consider B12, for which the “He/Con_2b (IIb binding)” value was 80.5 % of control (control = 100).
As for B13, the “He/Con_2b (IIb binding)” value was 70.1 % of control (control = 100).

The target in a further experiment is T4, FcγRIa extracellular domain with …. Nature of the experiment: SPR (Biacore); He/Con_1a divided by He/Con_2b (FcγRIIb). The method, then:
as §1, §2
Turning to B8, the “He_1a/2b (Ia/IIb)” value was found to be 2.42.
As to B9, the “He_1a/2b (Ia/IIb)” value is 1.57.
Same read-out and setting: the same measure for B10: 2.22; for B11: 1.52.
On the same count and under the same terms, the same measure for B12: 1.3; for B13: 1.53.
